Measured values published in article PMC11960969, “Mdga2 deficiency leads to an aberrant activation of BDNF/TrkB signaling that underlies autism-relevant synaptic and behavioral changes in mice” (PLOS Biology, 2025).

B1: sp¦O35449¦PRRT1_MOUSE (protein, UniProt O35449 1-306, looked up)
Proline-rich transmembrane …: MSSEKSGLPDSVPHTSPPPYNAPQPPAEPPIPPPQTAPSSHHHHHHHYHQSGTATLPRLGAGGLASAAASAQRGPSSSATLPRPPHHAPPGPAAGAPPPGCATLPRMPPDPYLQETRFEGPLPPPPPAAAAPPPPAPAPTAQAPGFVVPTHAGAVGTLPLGGYVAPGYPLQLQPCTAYVPVYPVGTPYAGGTPGGPGVTSTLPPPPQGPGLALLEPRRPPHDYMPIAVLTTICCFWPTGIIAIFKAVQVRTALARGDLVSAEIASREARNFSFISLAVGIAAMVLCTILTVVIIIAAQHHENYWDP
B2: sp¦A3KGB4¦TBC8B_MOUSE (protein, UniProt A3KGB4 1-1114, looked up)
TBC1 domain family member 8B: MWLKPEEVLLKNALKLWLMERSNEYFVLQRRRGYGEEGGGGLTGLLVGTLDSVLDSTAKVAPFRILHQTPDSQVYLSIACGANREEITKHWDWLEQNIMKTLSVFDSNEDITNFVQGKIRGLIAEEGKQSFAKEDDPEKFREALLKFEKSFGLPEQEKLVTYYSCSYWRGRVPCQGWLYLSTNFLSFYSFLLGSEIKLIISWDAISKLEKTSTVILTESIHVCSQGENHYFSMFLHINETYLLMEQLANYAIKRLFDKETFDNDPVLDDPLQITKRGLEYRAHSEQFKAFFRLPKEETLKEVHECFLWVPFSHFSSHGKMCISENYICFASQDGNLCSVIIPLREVLAIDKTDDSNRSVIISIKGKTAFRFSELKDFEQLVAKLRLKCRAASTQDDVSTEVAVSSDSTGPSENFEEQPLTCPKECSKTVNTEALMTVFHPQNLENLDSKMLKEKMKEQSWNILFSECGRGVSMFRTKKTRDLVVRGIPETLRGELWMLFSGAVNDMATNPGYYAEVVEQSLGTSNLATEEIERDLRRSLPEHPAFQSDTGISALRRVLTAYAYRNPKIGYCQAMNILTSVLLLYAKEEEAFWLLVAVCERMLPDYFNRRIIGALVDQAVFEELIRDHLPQLTDHMTDMTFFSSVSLSWFLTLFISVLPIESAVNVVDCFFYDGIKAILQLGLAILDYNLDKLLTCKDDAEAVTALNRFFDNVINKDSPLPSNVQQGSNISNEKSDHTKVDITDLIKESNEKYGSIRYEDIHSMRCRNRLYVIQTLEETTKQNVLRVVSQDVKMSLQELDELYVIFKKELFISCYWYLSCPGLKHHDPSLPYLEQYQIDCQQFRVLYHLLSPWAHSANRDSLALWTFRLLDENSDCLINFKEFSSAIDIMYNGSFTDKLKLLFKLHIPPAYTEVMSKTSSKGDELSTEELLYFSQLQVSKPADEKETESGRNSPEKGKGKIDIQAYLSQWQDELLKKEETIKDLPRMNQSQFIQFSKTLYNLFHEDPEEESLYQAIAIVTNLLLRMEEVGRKLHSPASSASTARDSGPSEGNAESSVKKDLPSPREEHQWSFAFEQILASLLNEPALVRFFERPLDLKAKLENAKSSQLRSRTKM
B3: sp¦Q8K0L9¦ZBT20_MOUSE (protein, UniProt Q8K0L9 1-741, looked up)
Zinc finger and BTB …: MLERKKPKTAENQKASEENEITQPGGSSAKPALPCLNFEAVLSPAPALIHSTHSLTNSHAHTGSSDCDISCKGMTERIHSINLHNFSNSVLETLNEQRNRGHFCDVTVRIHGSMLRAHRCVLAAGSPFFQDKLLLGYSDIEIPSVVSVQSVQKLIDFMYSGVLRVSQSEALQILTAASILQIKTVIDECTRIVSQNVGDVFPGIQDSGQDTPRGTPESGTSGQSSDTESGYLQSHPQHSVDRIYSALYACSMQNGSGERSFYSGAVVSHHETALGLPRDHHMEDPSWITRIHERSQQMERYLSTTPETTHCRKQPRPVRIQTLVGNIHIKQEMEDDYDYYGQQRVQILERNESEECTEDTDQAEGTESEPKGESFDSGVSSSIGTEPDSVEQQFGAAAPRDGQAEPAQPEQAAEAPAESSAQPNQLEPGASSPERSNESEMDNTVITVSNSSDKGVLQQPSVNTSIGQPLPSTQLYLRQTETLTSNLRMPLTLTSNTQVIGTAGNTYLPALFTTQPAGSGPKPFLFSLPQPLTGQQTQFVTVSQPGLSTFTAQLPAPQPLASSAGHSTASGQGDKKPYECTLCNKTFTAKQNYVKHMFVHTGEKPHQCSICWRSFSLKDYLIKHMVTHTGVRAYQCSICNKRFTQKSSLNVHMRLHRGEKSYECYICKKKFSHKTLLERHVALHSASNGTPPAGTPPGARAGPPGVVACTEGTTYVCSVCPAKFDQIEQFNDHMRMHVSDG

These molecules were tested on hippocampal proteins (assay: DIA quantification proteomics, hippocampus of Mdga2+/- vs WT mice). Details: Mdga2+/- vs WT mouse hippocampus (HET-HIP-VS-WT-HIP); S3 Table, downregulated DEPs; SE, pvalue and adj_pvalue in own columns c3-c5.
Parameters: species or system mouse
Procedure: The hippocampus of 1.5–2-month-old Mdga2^ +/− male mice and their WT littermate controls was collected and sent to the BGI company for DIA quantification proteomics and data analysis. Briefly, samples were lysed and sonicated. After centrifugation, the supernatant was taken for quantification. Equal amounts of proteins (100 μg) per sample were subjected to trypsin enzymatic hydrolysis. After dryness, 10 μg enzymatic peptides per sample were separated by high-pH fractionation into a total of 10 fractions using high-performance liquid chromatography (HPLC) and freeze-dried. Data-dependent acquisition (DDA) fractions and DIA samples were analyzed by nano-LC–MS/MS. DDA data was identified by Andromeda search engine within MaxQuant. Identified results were used by Spectronaut^TM for spectral library construction. For DIA data, Spectronaut^TM used the constructed spectral library information to complete deconvolution and extraction, and used the mProphet algorithm to complete analytical quality control for obtaining reliable quantitative results. The mass spectrometry proteomics data have been deposited to the ProteomeXchange Consortium via the PRIDE [62] partner repository with the dataset identifier PXD050810. DEPs between comparison groups were identified based on the quantitative results, using the fold change >1.1 and p-value <0.05 as the criteria. After retrieval from the UniProtKB database, identified DEPs were processed for GO analysis by using DAVID (https://david.ncifcrf.gov/home.jsp) and Metascape database (https://metascape.org/gp/index.html).
With B1 the log2FC was -1.273. B2 was tested, and the log2FC was -1.359. In the case of B3, the log2FC is reported as -1.342.

Same assay, conditions: regulation class of the protein, HET-HIP-VS-WT-HIP; S3 Table, downregulated DEPs
In the case of B1, the Class is reported as “Down”. In the case of B2, the Class is reported as “Down”. With B3 the Class was “Down”.
